T1: PRAME peptide on HLA-A*02:01 (human)
T1 peptide: VLDGLDVLL

T2: PRAME peptide on HLA-A*02:01 (human)
T2 peptide: SLLQHLIGL

T3: NY-ESO-1/LAGE-1 peptide on HLA-A*02 (human)
T3 peptide: SLLMWITQC


Experiments:
[1] = biological target: T1, PRAME peptide on HLA-A*02:01; assay: cytokine release
[2] = biological target: T2, PRAME peptide on HLA-A*02:01; assay: activation reporter or marker
[3] = biological target: T3, NY-ESO-1/LAGE-1 peptide on HLA-A*02; assay: cytokine release

binding result [1]	binding result [2]	binding result [3]	Binder
recognises	no recognition		PRAMEVLD-TCR (TCR, V domains shown) Valpha: EDQVTQSPEALRLQEGESSSLNCSYTVSGLRGLFWYRQDPGKGPEFLFTLYSAGEEKEKERLKATLTKKESFLHITAPKPEDSATYLCAVHSTAQAGTALIFGKGTTLSVSS Vbeta: DSGVTQTPKHLITATGQRVTLRCSPRSGDLSVYWYQQSLDQGLQFLIQYYNGEERAKGNILERFSAQQFPDLHSELNLSSLELGDSALYFCASSTHRGQTNYGYTFGSGTRLTVV
		recognises	NY-ESO TCR (TCR, V domains shown) Valpha: QKEVEQNSGPLSVPEGAIASLNCTYSDRGSQSFFWYRQYSGKSPELIMFIYSNGDKEDGRFTAQLNKASQYVSLLIRDSQPSDSATYLCAADDKIIFGKGTRLHILP Vbeta: DAGVIQSPRHEVTEMGQEVTLRCKPISGHDYLFWYRQTMMRGLELLIYFNNNVPIDDSGMPEDRFSAKMPNASFSTLKIQPSEPRDSAVYFCASSRGGSGYTFGSGTRLTVV

Reference: patent US20250197848A1 (published 2025)
